Assay results published in article PMC10659539.
Values joined by “and” are separate entries in the source; they are usually repeats but may differ in a detail not shown here. Identical values can stand only once.

Columns and labels:
[1] = target: GLT-1, transfected in HEK PS DKO cells (UniProt P31596); assay: native gel or EMSA; Blue Native PAGE of HEK PS DKO cells transfected with GLT-1 and pcDNA3.1-GFP or wildtype PS1, lysed with digitonin 5%; blot with anti-GLT-1
[2] = target: GLT-1, transfected in HEK PS DKO cells (UniProt P31596); assay: cross-linking; living HEK PS DKO cells transfected with GLT-1 and empty vector or wildtype PS1; 50 μM DSS in PBS−/− for 30 min at room temperature, quenched with 20 mM glycine; lysed in 1% NP-40 + 0.1% Triton-X; SDS-PAGE and blot with anti-GLT-1

- GLT-1 multimers as percent of total GLT-1, with co-expressed PS1 [1]: 95.6%
- GLT-1 multimers as percent of total GLT-1, without PS1 [1]: 89.7%
- stoichiometry N [1]: 2 and 3
- stoichiometry N [2]: 2 and 3
Substance: GLT-1, transfected in HEK PS DKO cells (from UniProt P31596 1-573) (natural protein)
